Here are results for one molecule from patent US20130260455A1 (ONCOMED PHARMACEUTICALS, published 2013).

For assay [1], the target named is T1, recombinant human Notch2 (EGF1-12) (human, UniProt Q04721 26-493).
T1 construct: also called hNotch2 *N2(EGF1-12)
T1 sequence: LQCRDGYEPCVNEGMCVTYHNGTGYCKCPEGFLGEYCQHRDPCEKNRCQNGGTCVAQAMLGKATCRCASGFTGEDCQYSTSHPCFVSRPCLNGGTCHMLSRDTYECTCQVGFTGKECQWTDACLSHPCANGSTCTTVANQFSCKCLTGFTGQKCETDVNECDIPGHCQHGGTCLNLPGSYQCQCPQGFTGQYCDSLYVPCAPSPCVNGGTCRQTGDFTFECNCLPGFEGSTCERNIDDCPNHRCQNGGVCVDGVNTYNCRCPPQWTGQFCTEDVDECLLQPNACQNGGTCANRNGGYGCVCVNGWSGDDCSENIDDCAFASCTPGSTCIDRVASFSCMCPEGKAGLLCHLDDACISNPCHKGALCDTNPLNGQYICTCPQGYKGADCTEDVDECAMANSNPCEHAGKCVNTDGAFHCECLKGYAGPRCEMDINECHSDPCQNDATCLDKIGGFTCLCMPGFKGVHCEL
Kind of assay: Biacore 2000 SPR; Notch protein amine-coupled to CM5 chip, antibody 1-100 nM injected. The procedure:
(§1) The affinities for human and mouse Notch1, Notch2, Notch3, and Notch4 were determined using a Biacore 2000 instrument. Briefly, recombinant human and mouse Notch proteins (EGF10-15 for Notch1, 2, & 4; EGF9-14 for Notch3) were immobilized on a CM5 chip using standard amine based chemistry (NHS/EDC). For hNotch2. EGF1-12 was also tested for binding. Different antibody concentrations (1-100 nM) were injected over the protein surfaces and kinetic data were collected over time. The data was fit using the simultaneous global fit equation to yield dissociation constants (KD, nM) for each Notch (Table 3).
(In general: In SPR one partner is held on a chip, and binding of the other changes the refractive index at the surface.)

Assay [2] deals with T2, mutant hNotch2 missing amino acids 375-412 (EGF repeat 10 deleted), on transfected cells (human, UniProt Q04721 26-2471).
T2 construct: also called hNotch2 in the absence of EGF10
Description: FACS on HEK-293 cells transiently transfected with human Notch2 Δaa 375-412 (EGF 10) and GFP. The method, then: FACS analysis of HEK-293 cells transiently transfected with the indicated Notch expression plasmid and GFP as a transfection control. GFP positive cells indicate expression of the transgene. Anti-Notch2 (59M70) was added at 20 μg/ml and detected by PE-conjugated goat anti-mouse (Caltag, #3004-4). 59R1 (IgG2) was added to the cells at 2 μg/ml and detected by PE-conjugated goat anti-human Fc gamma specific (Jackson Immunochemicals). Ligand binding was determined by incubation of the cells with human DLL4 extracellular domain (ECD) fused to rabbit IgG constant region at 5 μg/ml and detected by PE-conjugated donkey anti-rabbit.

In assay [3] the target is T3, recombinant human Notch1 (EGF10-15) (human, UniProt P46531 372-601).
T3 construct: The whole entry for hNotch1 is named here; also called hNotch1; h-Notch1
Description: Biacore 2000 SPR; Notch protein amine-coupled to CM5 chip, antibody 1-100 nM injected; Table 3: Biacore 2000, hNotch1 EGF10-15 on CM5 chip, antibody 1-100 nM; fitted KD. The procedure: as §1

Bounds are passed on as bounds.

B1: 59R1 IgG2 antibody (antibody, V domains shown)
VH: QVQLVESGGGLVQPGGSLRLSCAASGFTFSSSGMSWVRQAPGKGLEWVSVIASSGSNTYYADSVKGRFTISRDNSKNTLYLQMNSLRAEDTAVYYCARGIFFAIWGQGTLVTVSS
VL: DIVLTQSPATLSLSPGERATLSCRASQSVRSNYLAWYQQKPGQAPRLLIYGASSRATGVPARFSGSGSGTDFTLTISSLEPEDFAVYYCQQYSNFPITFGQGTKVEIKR
notes: Human IgG2/kappa made in CHO cells; also called anti-Notch2/3 antibody 59R1
What is called Kd is the equilibrium constant for the complex coming apart. Regarding B1, the Kd in assay [1] is less than 0.1 nM; in assay [3], 86.4 nM. For the same molecule, the binding result in assay [2] was “no binding (tested: 2 ug/ml)”.
